Our source for the critical concentration for filamentation, percent of total FilP soluble (in the supernatant after ultracentrifugation) and percent of added protein recovered in the supernatant after ultracentrifugation values is paper PMC6599971.

Test [1] deals with N-terminally 6×His-tagged FilP expressed in E. coli (Streptomyces coelicolor). Kind of test: turbidity (light scattering at 350 nm); His-N-FilP at 20-200 μg/ml dialysed against Tris assembly buffer; 96-well plate.
For test [2] the target is unchanged. Kind of test: ultracentrifugation sedimentation assay; His-N-FilP 200 μg/ml dialysed against Tris pH 8.8; 135,000-300,000g, 15-30 min, 25°C.
For test [3] the target is unchanged. Kind of test: ultracentrifugation sedimentation assay; His-N-FilP 200 μg/ml dialysed against 50 mM Tris-HCl pH 6.8 with 1 M NaCl; 135,000-300,000g, 15-30 min, 25°C.
Test [4] shares this target. The description is as above. The source holds these as a separate data set.
For test [5] the target is unchanged. Kind of test: ultracentrifugation sedimentation assay; His-N-FilP 200 μg/ml dialysed against 50 mM Tris-HCl pH 6.8 with 0.2 M KCl; 135,000-300,000g, 15-30 min, 25°C.
The target is the same in test [6]. Kind of test: ultracentrifugation sedimentation assay; His-N-FilP 200 μg/ml dialysed against 50 mM Tris-HCl pH 6.8 with 5 mM MgCl2; 135,000-300,000g, 15-30 min, 25°C.
Test [7] has the same target. Kind of test: ultracentrifugation sedimentation assay; His-N-FilP 200 μg/ml dialysed against 50 mM Tris-HCl pH 6.8 with 0.2 M KCl and 1 M NaCl; 135,000-300,000g, 15-30 min, 25°C.

Turning to “N-terminally 6×His-tagged FilP expressed in E. coli (natural protein)”, the critical concentration for filamentation in test [1] was found to be 33 µg/mL. Besides, the percent of total FilP soluble (in the supernatant after ultracentrifugation) in test [2] stood at 32%. Besides, the percent of added protein recovered in the supernatant after ultracentrifugation in test [3] came to 35%; in test [4] it was 40%; in test [5] it was 25%; in test [6] it was 11%; in test [7], 63%.
